Laboratory results reported in PMC12624148.
Several values for one entry are separate records, joined by “and”; a condition that tells them apart may be missing. Equal values may be shown once.

Columns and labels:
[1] = biological target: CPC I1-190 SB dloop del110-206;Borealin (UniProt Q9NQS7+O15392+Q53HL2); experiment: EMSA; details: histone H3 T3ph (native ligation, H3T32C); EMSA: 20 nM NCP, 10 mM Tris pH 7.5, 250 mM NaCl, 1 mM MgCl2, 1 mM DTT, 1% glycerol, 0.1 mg/ml BSA, 1 h on ice; gel at 4 C. SPR buffer not in the material
[2] = biological target: CPC I1-190 6A SB R65A;R66A;K67A;K68A;R69A;R70A;INCENP (UniProt Q9NQS7+O15392+Q53HL2); experiment: EMSA; details: histone H3 T3ph; EMSA: 20 nM NCP, 10 mM Tris pH 7.5, 250 mM NaCl, 1 mM MgCl2, 1 mM DTT, 1% glycerol, 0.1 mg/ml BSA, 1 h on ice; gel at 4 C. SPR buffer not in the material
[3] = biological target: CPC I1-190 6A SB dloop R65A;R66A;K67A;K68A;R69A;R70A;internal_change (UniProt Q9NQS7+O15392+Q53HL2); experiment: EMSA; details: histone H3 T3ph; EMSA: 20 nM NCP, 10 mM Tris pH 7.5, 250 mM NaCl, 1 mM MgCl2, 1 mM DTT, 1% glycerol, 0.1 mg/ml BSA, 1 h on ice; gel at 4 C. SPR buffer not in the material
[4] = biological target: H3T3 phosphorylated nucleosome core particle (H3T3ph NCP) (UniProt P62805); experiment: mass photometry; CPC-NCP complexes diluted to 20 nM (legend of Fig. EV1D: 50 nM) in 20 mM HEPES pH 8.0, 50 mM NaCl, 1 mM EDTA, 1 mM DTT; Refeyn TwoMP; Gaussian fitting of mass populations
[5] = biological target: H3T3 phosphorylated nucleosome core particle (H3T3ph NCP) (UniProt P62805); experiment: native gel or EMSA; 20 nM H3T3ph NCPs wrapped with centromeric α-satellite DNA; CPC 7.8 nM to 2 µM, 1 h on ice; 10 mM Tris pH 7.5, 250 mM NaCl, 1 mM MgCl2, 1 mM DTT, 1% glycerol, 0.1 mg/ml BSA; gel at 4 °C; unbound NCP band quantified, specific binding with Hill slope

“ACAGGATGTATATATGTGACACGTGCCTGGAGACTAGGGAGTAATCCCCTTGGCGGTTAAAACGCGGGGGACAGCGCGTACGTGCGTTTAAGCGGTGCTAGAGCTGTCTACGACCAATTGAGCGGCCTCGGCACCGGGATTCTCCAG (double strand) [H3T3ph NCP, Widom 601 147 bp]” gave a fold decrease in binding affinity vs P1 (fold decrease in affinity vs P1) [1] of 12.

For H3T3ph NCP, alpha-satellite 147 bp, the binding signal (fold weaker vs P1) [2] was 1.5 and the binding signal [3] was 13 fold.

For “CPC_(I1-190SB) (CPC containing INCENP 1-190, full-length Survivin and full-length Borealin) (from UniProt Q53HL2 1-280; O15392 1-142; Q9NQS7 1-190) (complex)”, the stoichiometry N [4] was 2 CPC per NCP.

Substance “CPC_(I1-190 6ASB) (INCENP with RRKKRR mutated to AAAAAA) (from UniProt Q53HL2 1-280; O15392 1-142; Q9NQS7 1-190) (complex)” has a times weaker binding against CPC (I1-190SB) [5] of 1.5 times.

“CPC_(I1-58SB) (containing INCENP 1-58, full-length Survivin and full-length Borealin) (from UniProt Q53HL2 1-280; O15392 1-142; Q9NQS7 1-58) (complex)” was tested, and the stoichiometry N [4] was 2 CPC per NCP and 1 CPC per NCP.

“CPC_(I1-58SBS266D) (containing INCENP 1-58, full-length Survivin and full-length Borealin dimer breaking mutant, S266D) (from UniProt Q53HL2 1-280; O15392 1-142; Q9NQS7 1-58) (complex)” was tested, and the stoichiometry N [4] was 1 CPC per NCP and 2 CPC per NCP.
